This note sets out measurements from patent US8415393B2, “Anti-bacterial drug targeting of genome maintenance interfaces” (Wisconsin Alumni Research Foundation, priority 2007, dated 2013).

For one test, the target named is T1, ExoI Arg338Ala variant (Escherichia coli, UniProt P04995 1-475).
T1 construct: basic ridge residue; also called R338A; Arg338 variant
T1 sequence: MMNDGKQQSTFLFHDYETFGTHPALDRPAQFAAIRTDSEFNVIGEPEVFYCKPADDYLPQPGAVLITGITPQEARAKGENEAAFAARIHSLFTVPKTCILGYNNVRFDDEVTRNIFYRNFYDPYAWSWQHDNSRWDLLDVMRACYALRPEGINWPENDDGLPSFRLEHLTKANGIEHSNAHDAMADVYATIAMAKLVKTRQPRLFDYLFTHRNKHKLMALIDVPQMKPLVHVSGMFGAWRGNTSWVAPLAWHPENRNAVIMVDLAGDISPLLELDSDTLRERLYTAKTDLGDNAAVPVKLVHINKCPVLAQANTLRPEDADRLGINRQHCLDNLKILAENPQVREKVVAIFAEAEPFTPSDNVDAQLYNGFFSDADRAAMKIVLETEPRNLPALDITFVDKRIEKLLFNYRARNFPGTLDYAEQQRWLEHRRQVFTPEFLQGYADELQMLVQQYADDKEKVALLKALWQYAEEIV
In words: fluorescence anisotropy equilibrium binding (Kd,app), ExoI variant titrated into fluorescein-labeled peptide.

The target in another test is T2, ExoI Arg327Ala variant (Escherichia coli, UniProt P04995 1-475).
T2 construct: also called R327A
T2 sequence: T1 sequence with R327A, A338R
Described as above.

Another test addresses T3, ExoI Gln452Ala variant (Escherichia coli, UniProt P04995 1-475).
T3 construct: helical domain residue; also called Q452A; Gln452 variant
T3 sequence: T1 sequence with A338R, Q452A
Described as above.

The target of another test is T4, ExoI Leu331Ala variant (Escherichia coli, UniProt P04995 1-475).
T4 construct: also called L331A
T4 sequence: T1 sequence with L331A, A338R
Described as above.

In a further test the target is T5, E. coli Exonuclease I (Escherichia coli, UniProt P04995 1-475).
T5 construct: also called ExoI; Exol
T5 sequence: T1 sequence with A338R
In words: fluorescence anisotropy equilibrium binding (Kd,app), ExoI titrated into fluorescein-labeled peptide.

Substitutions are numbered along the chain they refer to. Where no end group is shown, it is not given here. fluorescein = fluorescein moiety attached to the N-terminus of the peptide (N-terminal fluorescein label)

B1: fluorescein-labeled SSB C-terminal peptide (fluorescein-WMDFDDDIPF) (peptide)
peptide: fluorescein-WMDFDDDIPF
notes: also called F-SSB-Ct; F-WT
B1: the Kd in the test with ExoI Arg338Ala variant amounted to 398 nM; in the test with ExoI Arg327Ala variant, 270 nM; in the test with ExoI Gln452Ala variant it was 212 nM; in the test with ExoI Leu331Ala variant, 193 nM; with E. coli Exonuclease I, 136 nM.
